From patent US20030180744, “High affinity oligonucleotide ligands to growth factors” (GILEAD SCIENCES, INC., published 2003)

Columns and labels:
[1] = molecular target: T1, TGFβ1 (Homo sapiens, UniProt P01137 P01137:279-390); assay: filter; cell IC50 103 and 112 nM; fully effective only against TGFβ1, not TGFβ2 or TGFβ3; conditions: tags: Genentech; biotinylated version used in bead assay; chain copies: 2
[2] = molecular target: T1, TGFβ1; assay: filter; C to G at position 53; not inhibitory; conditions: tags: Genentech; biotinylated version used in bead assay; chain copies: 2
[3] = molecular target: T1, TGFβ1; assay: filter; 2'-OH RNA; conditions: tags: Genentech; biotinylated version used in bead assay; chain copies: 2
[4] = molecular target: T2, PDGF-AA (Homo sapiens, UniProt P04085 P04085:87-211); assay: filter; +/-12; PBSM, 37 C; comparable to random DNA; conditions: tags: R&D Systems, E. coli, long form of A-chain; chain copies: 2 (inferred); label: 5'-32P; three-way helix junction
Method: (§1) The fraction of ³²P 5′ nd-labeled DNA ligands bound to varying concentrations of PDGF was determined by the nitrocellulose filter binding method. Minimal ligands tested were 20t (o), 36t (Δ), and 41t (□). Oligonucleotide concentrations in these experiments were ≈10 pM (PDGF-AB and PDGF-BB) and ≈50 pM (PDGF AA). Data points were fitted to eq. 1 (for binding of the DNA ligands to PDGF-AA) or to eq. 2 (for binding to PDGF AB and BB) using the non-linear least squares method. Binding reactions were done at 37° C. in binding buffer (PBSM with 0.01% HSA).
(§2) The binding of ssDNA ligands at low concentrations to varying concentrations of PDGF was determined by the nitrocellulose filter binding method as described (Green et al., (1995) Chemistry and Biology 2:683-695). The concentrations of PDGF stock solutions (in PBS) were determined from the absorbance readings at 280 nm using the following e₂₈₀ values calculated from the amino acid sequences (Gill, S.C. and von Hippel, P. H. (1989) Anal. Biochem. 182:319-326): 19,500 M⁻¹cm⁻¹ for PDGF-AA, 15,700 M⁻¹cm⁻¹ for PDGF-AB and 11,800 M⁻¹cm⁻¹ for PDGF-BB. ssDNA for all binding experiments were purified by electrophoresis on 8% (>80 nucleotides) or 12% (<40 nucleotides) polyacrylamide/7 M urea gels. […]

[5] = molecular target: T3, PDGF-AB (Homo sapiens, UniProt P04085;P01127 P04085:87-211,P01127:82-190); assay: filter; +/-0.011; high affinity component; PBSM, 37 C; conditions: tags: R&D Systems, E. coli; label: 5'-32P; three-way helix junction
Method: as §1
(§3) The binding of ssDNA ligands at low concentrations to varying concentrations of PDGF was determined by the nitrocellulose filter binding method as described (Green et al., (1995) Chemistry and Biology 2:683-695). The concentrations of PDGF stock solutions (in PBS) were determined from the absorbance readings at 280 nm using the following e₂₈₀ values calculated from the amino acid sequences (Gill, S.C. and von Hippel, P. H. (1989) Anal. Biochem. 182:319-326): 19,500 M⁻¹cm⁻¹ for PDGF-AA, 15,700 M⁻¹cm⁻¹ for PDGF-AB and 11,800 M⁻¹cm⁻¹ for PDGF-BB. ssDNA for all binding experiments were purified by electrophoresis on 8% (>80 nucleotides) or 12% (<40 nucleotides) polyacrylamide/7 M urea gels. All ssDNA ligands were heated at 90° C. in binding buffer at high dilution (1 μM) for 2 min and cooled on ice prior to further dilution into the protein solution. The binding mixtures were typically incubated for 15 min at 37° C. before partitioning on nitrocellulose filters.
(§4) ^aData points shown in FIG. 5A were fitted to eq 1 (Example 7). ^bData points in FIGS. 5B and 5C were fitted to eq. 2.

[6] = molecular target: T4, PDGF-BB (Homo sapiens, UniProt P01127 P01127:82-190); assay: filter; +/-0.009; high affinity component; PBSM, 37 C; conditions: tags: R&D Systems, E. coli; chain copies: 2 (inferred); label: 5'-32P; three-way helix junction
Method: as §1, §2

[7] = molecular target: T1, TGFβ1; assay: filter; 2'-OH RNA; printed lib1-6-8 in Table 4; conditions: tags: Genentech; biotinylated version used in bead assay; chain copies: 2
[8] = molecular target: T1, TGFβ1; assay: filter; 37 C; cell IC50 49 nM; conditions: tags: Genentech; biotinylated version used in bead assay; chain copies: 2
[9] = molecular target: T1, TGFβ1; assay: cell_activity; conditions: tags: Genentech or R&D Systems; chain copies: 2
Method: MLEC-Pail/luc cells were plated at 3.2×10⁴ cells per well in a 96 well Falcon plate, in 100 μl of DME+10% fetal bovine serum overnight. Media was made from autoclaved water. The cells were washed three times ([…]) in serum free DME plus Solution A (1:1). Solution A is 30 mM Hepes pH 7.6, 10 mM glucose, 3.0 mM KCl, 131 mM NaCl, 1.0 mM disodium phosphate. Samples (100 μl) were added in DME containing 20 mM Hepes pH 7.5, and 0.1% BSA (Fluka, radioimmunoassay grade). All samples were in triplicate. After six hours at 37° C. in a 5% CO₂ incubator the media was removed and cells were washed three times (100 μl each) in cold PBS. Lysis buffer (75 μl) (Analytical Luminescence Laboratory) was added and the plates incubated on ice for 20 min. The plates were sealed and frozen at −80° C. until assayed. Samples (25 μl) were assayed for luciferase activity with the Enhanced Luciferase Assay Kit from Analytical Luminescence Laboratory (San Diego, Calif., USA) according to the manufacturer's instructions using the Berthold Microlumat LB96P luminometer.
Ligands tested for inhibition of TGFβ1 activity were tested at a minimum of five concentrations. The ligands were serially diluted in DME, 20 mM Hepes pH 7.5, 0.1% Fluka BSA in polypropylene tubes and an equal volume of media containing 12 pM TGFβ1 was added to each tube, vortexed and transferred to the cells without further incubation.

[10] = molecular target: T1, TGFβ1; assay: filter; not inhibitory; no binding with 2'-NH2 pyrimidines; conditions: tags: Genentech; biotinylated version used in bead assay; chain copies: 2
[11] = molecular target: T1, TGFβ1; assay: filter; cell IC50 298 and 201 nM; conditions: tags: Genentech; biotinylated version used in bead assay; chain copies: 2
[12] = molecular target: T3, PDGF-AB; assay: filter; +/-38; high affinity component of biphasic binding; conditions: tags: R&D Systems, E. coli
Method: (§5) Briefly, the 2′-fluoro-2′-deoxypyrimidine RNA for affinity selections was prepared by in vitro transcription from synthetic DNA templates using T7 RNA polymerase (Milligan et al., Nucl. Acids Res. 15:8783 (1987)). The conditions for in vitro transcription described in detail previously (Jellinek et al., (1994) supra) were used, except that higher concentration (3 mM) of the 2′-fluoro-2′-deoxypyrimidine nucleoside triphosphates (2′-F-UTP and 2′-F-CTP) was used compared to ATP and GTP (1 mM). Affinity selections were done by incubating PDGF AB with 2′-fluoro-2′-deoxypyrimidine RNA for at least 15 min at 37° C. in PBS containing 0.01% human serum albumin. Partitioning of free RNA from protein-bound RNA was done by nitrocellulose filtration as described (Jellinek et al., (1993, 1994) supra). Reverse transcription of the affinity-selected RNA and amplification by PCR were done as described previously (Jellinek et al., (1994) supra). […] The affinity-enriched pool (round 19) was cloned and sequenced as described (Schneider et al., (1992) supra). The unique-sequence ligands were screened for their ability to bind PDGF AB with high affinity.

[13] = molecular target: T3, PDGF-AB; assay: filter; +/-34; high affinity component of biphasic binding; conditions: tags: R&D Systems, E. coli
Method: as §5

[14] = molecular target: T2, PDGF-AA; assay: filter; +/-8; PBSM, 37 C; comparable to random DNA; conditions: tags: R&D Systems, E. coli, long form of A-chain; chain copies: 2 (inferred); label: 5'-32P; three-way helix junction
Method: as §1, §2

[15] = molecular target: T4, PDGF-BB; assay: filter; +/-0.011; high affinity component; PBSM, 37 C; conditions: tags: R&D Systems, E. coli; chain copies: 2 (inferred); label: 5'-32P; three-way helix junction
Method: as §1, §3, §4

[16] = molecular target: T3, PDGF-AB; assay: filter; +/-0.009; high affinity component; PBSM, 37 C; conditions: tags: R&D Systems, E. coli; label: 5'-32P; three-way helix junction
Method: as §1, §2

[17] = molecular target: T3, PDGF-AB; assay: filter; thrombin aptamer control; conditions: tags: R&D Systems, E. coli; stem-loop
Method: as §3

[18] = molecular target: T1, TGFβ1; assay: filter; cell IC50 22 nM; conditions: tags: Genentech; biotinylated version used in bead assay; chain copies: 2
[19] = molecular target: T1, TGFβ1; assay: filter; 37 C; cell IC50 17 nM; conditions: tags: Genentech; biotinylated version used in bead assay; chain copies: 2
[20] = molecular target: T2, PDGF-AA; assay: filter; +/-4; PBSM, 0.01% HSA, 37 C; comparable to random DNA; conditions: tags: R&D Systems, E. coli, long form of A-chain; chain copies: 2 (inferred); label: 5'-32P; three-way helix junction
Method: as §1, §2

[21] = molecular target: T4, PDGF-BB; assay: filter; +/-0.031; high affinity component; PBSM, 37 C; conditions: tags: R&D Systems, E. coli; chain copies: 2 (inferred); label: 5'-32P; three-way helix junction
Method: as §1, §4

T4 sequence (P01127 82-190, one chain of several): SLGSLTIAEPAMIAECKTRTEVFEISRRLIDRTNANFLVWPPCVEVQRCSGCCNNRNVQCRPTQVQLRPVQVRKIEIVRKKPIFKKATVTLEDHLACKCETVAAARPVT
T3 sequence (P01127 82-190, chain 2 of 2, other chains not shown): as the sequence (P01127 82-190, one chain of several) above
T1 sequence (P01137 279-390, one chain of several): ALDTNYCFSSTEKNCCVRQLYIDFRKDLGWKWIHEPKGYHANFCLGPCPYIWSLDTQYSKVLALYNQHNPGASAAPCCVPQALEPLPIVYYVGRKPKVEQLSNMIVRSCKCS

B1: lib2-6-1 (ssRNA)
RNA: GGGGGAGAACGCGGAUCCUGUCUCCACCGCCGAUACUGGGGUUCCUGGGGCCCCUCCAUGCAGGAGGGGGGUGGUUCGGAGAAAGCUUCGCUCUAGAUCUCCCUUUAGUGAGGGUUA
modifications: 2'-NH2 U, 2'-F C
Kd [1]: 14.3 nM

B2: lib8-23 (ssRNA)
RNA: GGGGGAGAACGCGGAUCCUGUCUCCACCGCCGAUACUGGGGUUCCUGGGGCCGCUCCAUGCAGGAGGGGGGUGGUUCGGAGAAAGCUUCGCUCUAGAUCUCCCUUUAGUGAGGGUUA
modifications: 2'-NH2 U, 2'-F C
Kd [2]: 6.6 nM

B3: lib1-20-12 (ssRNA)
RNA: GGGGGAGAACGCGGAUCCGGUCACCCGGGCAUAUAACAAUGCCGACACUGGGGUACCUGGGACGGGUGGGACUGGACGGAAGAAGCUUCGCUCUAGAUCUCCCUUUAGUGAGGGUUA
Kd [3]: 3.1 nM

CACAGGCTACGGCACGTAGAGCATCACCATGATCCTGTGT (ssDNA, 3'-3' linked T at 3' end) [36t]
Kd [4]: 72 nM
Kd [5]: 0.094 nM
Kd [6]: 0.093 nM

B4: lib2-6-8 (lib1-6-8 in Table 4) (ssRNA)
RNA: GGGGGAGAACGCGGAUCCAUAACCGGCUGCAUGGGAGGGACAUCCUGGGAAAGGACGGGUCGAGAUGACCUGAGCAGUUCCGGCAAGCUUCGCUCUAGAUCUCCCUUUAGUGAGGGUUA
Kd [7]: 4.7 nM

B5: lib5-5 (ssRNA)
RNA: GGGGGAGAACGCGGAUCCGAGCAAUCCCAGGCGCAUAGCUUCCGAGUAGACAGGAGGGAGGGGUGGAUGUGGCGUCUCGAGGAAGCUUCGCUCUAGAUCUCCCUUUAGUGAGGGUUA
modifications: 2'-NH2 pyrimidines
Kd [8]: 2.4 nM
IC50 [9]: 49 nM

B6: lib1-20-3 (ssRNA)
RNA: GGGGGAGAACGCGGAUCCUGCUAGACCGAGGAUGCAAAGGGACAUGCAUUAGGGAAACCUAUGUAUAAGAACGCGGUCGCAGAAGCUUCGCUCUAGAUCUCCCUUUAGUGAGGGUUA
modifications: 2'-F pyrimidines
Kd [10]: 30 nM

B7: lib2-6-1-81 (ssRNA)
RNA: GGGGGAGAACGCGGAUCCUGUCUCCACCGCCGAUACUGGGGUUCCUGGGGCCCCUCCAUGCAGGAGGGGGGUGGUUCGGAG
modifications: 2'-NH2 U, 2'-F C
Kd [11]: 10.7 nM

B8: PDGF 2'-F clone 23 (ssRNA)
RNA: GGGAGACAAGAAUAACGCUCAAUCGAUCGGUUGUGUGCCGGACAGCUUUGACCAUGAGCUGGGACCGAGGCCUUCGACAGGAGGCUCACAACAGGC
modifications: 2'-F pyrimidines
Kd [12]: 0.173 nM

B9: PDGF 2'-F clone 16 (ssRNA)
RNA: GGGAGACAAGAAUAACGCUCAACGAACGAGGAGGGAGUGGCAAGGGAUGGUUGGAUAGGCUCUACGCUCAUUCGACAGGAGGCUCACAACAGGC
modifications: 2'-F pyrimidines
Kd [13]: 0.116 nM

TACTCAGGGCACTGCAAGCAATTGTGGTCCCAATGGGCTGAGTAT (ssDNA, 3'-3' linked T at 3' end) [41t]
Kd [14]: 49 nM
Kd [15]: 0.129 nM
Kd [16]: 0.138 nM

CAGTCCGTGGTAGGGCAGGTTGGGGTGACTTCGTGGAAT (ssDNA, 3'-3' linked T at 3' end) [T39]
Kd [17]: 230 nM

B10: lib3-42 (ssRNA)
RNA: GGGGGAGAACGCGGAUCCGGUGGGAAAGUCGGAUUAUGUGUGUAGAUUUGUGUGCGAAAGCUUCGCUCUAGAUCUCCCUUUAGUGAGGGUUA
modifications: 2'-NH2 pyrimidines
Kd [18]: 0.6 nM
IC50 [9]: 22 nM

B11: lib5-7 (ssRNA)
RNA: GGGGGAGAACGCGGAUCCGAGCAAGCCCUGGCAUAGCUUCCGAGUAGACAGGAGGGAGGGGUGGAUGUGGCGUCUACUCGGUGUCGUGAAGCUUCGCUCUAGAUCUCCCUUUAGUGAGGGUUA
modifications: 2'-NH2 pyrimidines
Kd [19]: 3.4 nM
IC50 [9]: 17 nM

TGGGAGGGCGCGTTCTTCGTGGTTACTTTTAGTCCCGT (ssDNA, 3'-3' linked T at 3' end) [20t]
Kd [20]: 47 nM
Kd [21]: 0.127 nM
Kd [5]: 0.147 nM
